US7485460B2, “Enhanced growth of adult stem cells with Dkk-1” (Tulane University Health Sciences Center, priority 2003, dated 2009)

Columns and labels:
MSCs (RS cells) = experiment: Binding of biotinylated Dkk-1 peptides to MSCs (streptavidin-biotin fluorescence microscopy); set-up: species or system human; details: for fluorescence of MSCs labeled with peptide: FIGS. 30A-30G correspond to peptides A-G; for binding to early progenitor cells (RS cells): biotin-labeled peptide, streptavidin Alexafluor 594
Text: FIG. 30, comprising FIGS. 30A-30H, is an image of a set of photomicrographs depicting solid phase binding assays to MSCs using biotinylated peptides. The labeled peptides in FIGS. 30A-30G correspond to peptides A-G in FIG. 29. FIG. 30H is a control.
The peptides were then labeled with biotin for use with a commercially available streptavidin-biotin detection system. The streptavidin was linked to a fluorescent tag (Alexafluor 594, Molecular Probes, Eugene, Oreg.) so as to be easily detected by fluorescence microscopy. MSCs were incubated with one of the peptides and the streptavidin-biotin detection system as indicated by the manufacturer's instructions. Then the MSCs were observed under a fluorescence microscope. All of these methods are well-known in the art and are easily found throughout the literature.

hMSCs [1] = experiment: Effect of recombinant Dkk-1 on hMSC proliferation (fluorescence assay for nucleic acids); assay type: cell-based, human
Experimental: For assay of proliferation, cells were also quantified by fluorescent labeling of nucleic acids (CyQuant dye; Molecular Probes Incorporated; Eugene, Oreg.). hMSCs were plated at 100 cells per cm^2 into 10 cm^2 wells and allowed to grow for 4 days. The cells were washed with PBS and medium was added containing the appropriate concentration of Dkk-1 and FCS. The cells were recovered by trypsinization as described above. Fluorescence analysis was carried out using a microplate fluorescence reader (FLx800; Bio-Tek Instruments Incorporated; Winooski, Vt.) set to 480 nanometers excitation and 520 nanometers emission.
To test the hypothesis that Dkk-1 increased proliferation of hMSCs, its effects on rate of growth were assayed. The hMSCs were plated at a density of 100 cells per cm^2 in 6 well plates (10 per cm^2 per well). After 4 days, when the cells were in early log phase of growth, the conditioned medium was removed and replaced with fresh medium containing either vehicle, 0.1 micrograms per milliliter Dkk-1 or 0.01 micrograms per milliliter Dkk-1.

hMSCs [2] = experiment: Colony-forming potential of hMSCs with recombinant Dkk-1 (crystal violet); assay type: cell-based, human
Experimental: MSCs were plated at about 0.6 cells per cm^2 and incubated in complete medium for 17 days. For direct visualization of colonies, a 5% (w/v) solution of crystal violet in methanol (Sigma Aldrich, St. Louis, Mo.) was added to tissue culture dishes previously washed twice with PBS. After 20 minutes, the plates were washed with distilled water and air-dried. Stained colonies with diameters 2 millimeters or greater were counted.
To test the effect of recombinant Dkk-1 on the colony-forming potential of hMSCs, 100 hMSCs were plated onto a 176 cm2 tissue culture dish and allowed to form colonies in the absence or presence of Dkk-1 in medium supplemented with 10% (v/v) fetal calf serum instead of the optimal concentration of 20%.

beta-catenin [3] = experiment: Cellular distribution of beta-catenin in hMSCs by immunostaining; assay type: cell-based, human; details: stationary phase hMSCs, 0.1 micrograms per milliliter
Experimental: hMSCs in tissue culture dishes were fixed with 4% (v/v) Paraformaldehyde (USB Corporation, Cleveland, Ohio) for 10 minutes at 4° C. and washed with PBS (Fisher Lifesciences, Pittsburgh, Pa.). Sections (30 millimeter×60 millimeter) of the dishes containing the adherent cells were excised using a hot scalpel under constant hydration with PBS. The samples were blocked in PBS containing 0.4% (v/v) Triton X-100 (Sigma Aldrich, St. Louis, Mo.) and 5% (v/v) goat serum (Sigma Aldrich). Anti-beta-catenin (described above) was added in a 1:400 dilution to the slides in block solution. An appropriate concentration of mouse IgG1 (Cymbus Biotechnology Chandlers Ford, Hants, UK) was used as an isotype control. The samples were incubated for 16 hours at 4° C. followed by washing in PBS. The samples were then incubated for 1 hour in a 1:800 dilution of Alexa-Fluor 594-congugated secondary antibody (Molecular Probes, Eugene, Oreg.). Isotype controls were acquired from Chemicon and Becton Dickinson Slides were washed and mounted with medium containing DAPI (Vector Laboratories Incorporated; Burlingame, Calif.). Immunofluorescence microscopy and digital imaging was carried out using an upright fluorescent microscope (Eclipse 800, Nikon, Japan). […]

beta-catenin [4] = experiment: beta-catenin levels in hMSCs by western blotting; assay type: cell-based, human; details: stationary phase hMSCs, 0.1 micrograms per milliliter
Experimental: For immunoblotting, filters were blocked in PBS containing 0.1% (v/v) Tween 20 (Sigma, St. Louis, Mo.) for 1 hour. For detection of beta-catenin, blots were probed with an anti-beta-catenin monoclonal antibody at a dilution of 1 to 1000 (clone 5H10 Chemicon International; Temecula, Calif.) followed by an anti-mouse peroxidase-conjugated rabbit serum (Sigma Aldrich, St. Louis, Mo.). For detection of Dkk-1, blots were probed in 1 microgram per milliliter of anti Dkk-1 polyclonal antibody (see below) followed by an anti-rabbit peroxidase-conjugated monoclonal antibody (clone RG 96, Sigma Aldrich, St. Louis, Mo.). Positive bands were detected by chemiluminescence in accordance with a previously described procedure (Spees et al. Cell Stress Chaperones, 7:97-106 (2002)).
In further experiments, the effect of recombinant Dkk-1 on beta-catenin levels in hMSCs were investigated.

[5] = 100 hMSCs per 176 cm2 dish, 10% FCS, 2.5 weeks

With “LSSKMYHTKGQEGSVCLRSS (Peptide synthesized from Dkk-1 LRP-6 binding domain) [Peptide B]” the “fluorescence of MSCs labeled with peptide” value (MSCs (RS cells)) was “highly fluorescent” and the “binding to early progenitor cells (RS cells)” value (MSCs (RS cells)) was “tightly bound”.

“sTKHRRKGSHGLEIFQRCYs (STKHRRKGSHGLEIFQRCYS; Peptide synthesized from Dkk-1 LRP-6 binding domain) [Peptide E]” was tested, and the “fluorescence of MSCs labeled with peptide” value (MSCs (RS cells)) was “highly fluorescent” and the “binding to early progenitor cells (RS cells)” value (MSCs (RS cells)) was “tightly bound”.

B1: recombinant Dkk-1: Histidine-tagged recombinant human Dkk-1 expressed in E. coli, refolded from inclusion bodies; inhibitor of Wnt signaling (protein)
chain: TLNSVLNSNAIKNLPPPLGGAAGHPGSAVSAAPGILYPGGNKYQTIDNYQPYPCAEDEECGTDEYCASPTRGGDAGVQICLACRKRRKRCMRHAMCCPGNYCKNGICVSSDQNHFRGEIEETITESFGNDHSTLDGYSRRTTLSSKMYHTKGQEGSVCLRSSDCASGLCCARHFWSKICKPVLKEGQVCTKHRRKGSHGLEIFQRCYCGEGLSCRIQKDHHQASNSSRLHTCQRH
With B1 the “duration of effect on proliferation” value (hMSCs [1]; 0.1 micrograms per milliliter) was 30 h, the “rate of proliferation at high concentration” value (hMSCs [1]; 0.5 micrograms per milliliter) was “failed to increase the rate of proliferation” and the “effect on proliferation as cells approached stationary phase” value (hMSCs [1]; cells approaching stationary phase of growth) was “no significant effect”. For the same molecule, the “effect on lag phase and proliferation” value (hMSCs [1]; early log phase hMSCs, fresh medium with 0.1 or 0.01 micrograms per milliliter Dkk-1) was “reduced the lag phase and initially increased proliferation”, the “duration of significant effect on proliferation” value (hMSCs [1]; tenfold less Dkk-1 (0.01 micrograms per milliliter)) was “about 15 hours” and the “colony size and number at high concentration” value (hMSCs [2]; 0.5 micrograms per milliliter) was “reduced both the colony size and number”. The colony number (hMSCs [2]; [5]) was “no significant effect”, the colony size (hMSCs [2]; [5]) was “increased colony size” and the “cellular distribution of beta-catenin” value (beta-catenin [3]) was “clearance of the cytoplasmic pool of beta-catenin”. The beta-catenin levels (beta-catenin [4]) was “reduced the levels of beta-catenin”.
